Article PMC8273888

What was measured:
[1] = system: [H][C@]12SCC(CSC(C(=O)O)c3ccccc3)=C(C(=O)O)N1C(=O)[C@H]2NC(=O)Cc1ccccc1; assay: purified protein, by the assay type; conditions: pH 7.2, 25.0 °C
[2] = system: [H][C@]12SCC(CS[C@H](Cc3ccccc3)C(=O)O)=C(C(=O)O)N1C(=O)[C@H]2NC(=O)Cc1ccccc1; assay: purified protein, by the assay type; conditions: pH 7.2, 25.0 °C
[3] = other: compound as substrate of VIM-2
[4] = other: compound as substrate of NDM-1

Substance	Km [1, 3]	kcat [1, 3]	kcat/Km [1, 3]	Km [2, 3]	kcat [2, 3]	kcat/Km [2, 3]	Km [1, 4]	kcat [1, 4]	kcat/Km [1, 4]	Km [2, 4]	kcat [2, 4]	kcat/Km [2, 4]
VIM-2 (Escherichia coli)	8.28 ± 2 µM	4.06 s⁻¹	490000 M⁻¹ s⁻¹	4.30 ± 1 µM	2.35 s⁻¹	546000 M⁻¹ s⁻¹	–	–	–	–	–	–
NDM-1 (Klebsiella pneumoniae)	–	–	–	–	–	–	14.0 ± 2 µM	13.1 s⁻¹	936000 M⁻¹ s⁻¹	21.2 ± 4 µM	17.4 s⁻¹	821000 M⁻¹ s⁻¹
